Reference: patent US20210087281A1 (AGOMAB THERAPEUTICS, published 2021)

Assays:
[1] = biological target: human MET ECD mutant I (mutations 6, 7, 8) (human) (UniProt P08581); experiment: ELISA, MET ECD in solid phase, mAb 0-50 nM
[2] = biological target: human MET ECD mutant J (mutations 6, 7) (human) (UniProt P08581); experiment: ELISA, MET ECD in solid phase, mAb 0-50 nM
[3] = biological target: T1, mouse MET-Fc (R&D Systems) (mouse, UniProt P16056 25-929, limits assumed); experiment: competition ELISA, mMET-Fc in solid phase, competitor 0.3 nM biotinylated mHGF
T1 construct: bought chimeric protein; also called mMET; not shown: Fc part
Procedure, shortened: (§1)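 First, HGF is biotinylated at the N-terminus via NHS-LC-biotin. Next, the coated chimeric receptor is incubated with this tracer plus antibody at rising concentrations, 0-120 nM. Finally, IC₅₀ and IMAX (maximal % competition reached at saturation) are derived.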

[4] = biological target: T2, native human MET on living cells (human, UniProt P08581 25-1390); experiment: cell-based or functional assay
[5] = biological target: T3, native mouse MET on living cells (mouse, UniProt P16056 25-1379); experiment: cell-based or functional assay
[6] = biological target: T2, native human MET on living cells; experiment: cell-based or functional assay; remark: listed apart in the source
[7] = biological target: T3, native mouse MET on living cells; experiment: cell-based or functional assay; remark: listed apart in the source
[8] = biological target: T2, native human MET on living cells; experiment: cell-based or functional assay; remark: listed apart in the source
[9] = biological target: T3, native mouse MET on living cells; experiment: cell-based or functional assay; remark: listed apart in the source
[10] = biological target: T2, native human MET on living cells; experiment: flow cytometry, A549 cells
Procedure, shortened: (§2)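 Chimeric anti-MET antibodies were incubated with living cells expressing native MET, human on A549 and mouse on MLP29. Binding was detected by flow cytometry with phycoerythrin-conjugated anti-human IgG1. Commercial anti-MET antibodies with matching PE secondaries served as positive controls.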

[11] = biological target: T3, native mouse MET on living cells; experiment: flow cytometry, MLP29 cells
Procedure, shortened: as §2

[12] = biological target: T4, human MET-Fc (R&D Systems) (human, UniProt P08581 25-932); experiment: competition ELISA, hMET-Fc in solid phase, competitor 0.3 nM biotinylated hHGF
T4 construct: extracellular domain; bought chimeric protein; also called hMET; not shown: Fc portion of human IgG1
Procedure, shortened: as §1

[13] = biological target: T5, mouse MET ECD (mouse, UniProt P16056 25-931); experiment: ELISA, MET ECD in solid phase, mAb 0-20 nM
T5 construct: range 1-931; recombinant ECD made by the applicants; the stated range begins at residue 1; also called mMET; mMET ECD
Procedure, shortened: (§3)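 Binding is determined by ELISA in which coated MET extracellular domain captures llama-human chimeric IgG1 applied in solution across a concentration series. Protein A-purified material from transient mammalian expression is used.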

[14] = biological target: T6, human MET ECD (human, UniProt P08581 25-932); experiment: ELISA, MET ECD in solid phase, mAb 0-20 nM
T6 construct: range 1-932; recombinant ECD made by the applicants; the stated range begins at residue 1, so it includes the signal peptide of the entry; also called hMET; hMET ECD
Procedure, shortened: as §3

[15] = biological target: T2, native human MET on living cells; experiment: cell-based or functional assay; remark: listed apart in the source
[16] = biological target: T3, native mouse MET on living cells; experiment: cell-based or functional assay; remark: listed apart in the source

T2 sequence (P08581 25-1390): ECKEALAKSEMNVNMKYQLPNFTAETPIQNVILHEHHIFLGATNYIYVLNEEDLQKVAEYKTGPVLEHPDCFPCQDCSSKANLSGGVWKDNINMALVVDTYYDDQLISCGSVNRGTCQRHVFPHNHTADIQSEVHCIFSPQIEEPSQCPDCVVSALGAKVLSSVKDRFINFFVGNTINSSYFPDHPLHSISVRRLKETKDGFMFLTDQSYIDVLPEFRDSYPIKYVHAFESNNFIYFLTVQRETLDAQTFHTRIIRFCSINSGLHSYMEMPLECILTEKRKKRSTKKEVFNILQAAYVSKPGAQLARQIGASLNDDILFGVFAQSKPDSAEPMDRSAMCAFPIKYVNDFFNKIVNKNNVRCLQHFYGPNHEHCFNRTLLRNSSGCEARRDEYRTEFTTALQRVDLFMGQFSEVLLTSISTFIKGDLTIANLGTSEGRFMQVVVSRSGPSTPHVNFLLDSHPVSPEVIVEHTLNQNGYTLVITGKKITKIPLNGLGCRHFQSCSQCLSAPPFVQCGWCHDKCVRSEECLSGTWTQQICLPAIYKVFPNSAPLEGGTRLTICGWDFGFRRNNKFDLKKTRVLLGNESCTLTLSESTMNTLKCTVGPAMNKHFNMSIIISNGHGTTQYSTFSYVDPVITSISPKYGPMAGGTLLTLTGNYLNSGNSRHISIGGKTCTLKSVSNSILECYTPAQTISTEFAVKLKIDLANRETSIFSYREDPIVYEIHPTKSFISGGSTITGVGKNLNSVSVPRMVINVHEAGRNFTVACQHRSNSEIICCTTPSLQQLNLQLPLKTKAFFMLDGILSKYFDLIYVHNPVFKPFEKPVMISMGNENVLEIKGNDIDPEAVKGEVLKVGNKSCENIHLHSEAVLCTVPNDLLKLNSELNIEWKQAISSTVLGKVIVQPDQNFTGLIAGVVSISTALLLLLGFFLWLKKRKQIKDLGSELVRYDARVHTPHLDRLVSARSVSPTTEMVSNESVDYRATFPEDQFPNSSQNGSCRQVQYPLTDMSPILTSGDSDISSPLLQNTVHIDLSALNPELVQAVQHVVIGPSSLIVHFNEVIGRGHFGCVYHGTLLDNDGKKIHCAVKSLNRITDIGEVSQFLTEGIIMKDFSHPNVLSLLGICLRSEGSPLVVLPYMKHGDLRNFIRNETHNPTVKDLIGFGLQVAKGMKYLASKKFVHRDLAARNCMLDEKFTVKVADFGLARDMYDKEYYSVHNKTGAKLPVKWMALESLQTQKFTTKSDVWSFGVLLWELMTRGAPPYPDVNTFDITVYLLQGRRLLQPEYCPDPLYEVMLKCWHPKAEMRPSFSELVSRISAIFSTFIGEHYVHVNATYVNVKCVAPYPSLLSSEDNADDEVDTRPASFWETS
T6 sequence (P08581 25-932 limits assumed, form in doubt): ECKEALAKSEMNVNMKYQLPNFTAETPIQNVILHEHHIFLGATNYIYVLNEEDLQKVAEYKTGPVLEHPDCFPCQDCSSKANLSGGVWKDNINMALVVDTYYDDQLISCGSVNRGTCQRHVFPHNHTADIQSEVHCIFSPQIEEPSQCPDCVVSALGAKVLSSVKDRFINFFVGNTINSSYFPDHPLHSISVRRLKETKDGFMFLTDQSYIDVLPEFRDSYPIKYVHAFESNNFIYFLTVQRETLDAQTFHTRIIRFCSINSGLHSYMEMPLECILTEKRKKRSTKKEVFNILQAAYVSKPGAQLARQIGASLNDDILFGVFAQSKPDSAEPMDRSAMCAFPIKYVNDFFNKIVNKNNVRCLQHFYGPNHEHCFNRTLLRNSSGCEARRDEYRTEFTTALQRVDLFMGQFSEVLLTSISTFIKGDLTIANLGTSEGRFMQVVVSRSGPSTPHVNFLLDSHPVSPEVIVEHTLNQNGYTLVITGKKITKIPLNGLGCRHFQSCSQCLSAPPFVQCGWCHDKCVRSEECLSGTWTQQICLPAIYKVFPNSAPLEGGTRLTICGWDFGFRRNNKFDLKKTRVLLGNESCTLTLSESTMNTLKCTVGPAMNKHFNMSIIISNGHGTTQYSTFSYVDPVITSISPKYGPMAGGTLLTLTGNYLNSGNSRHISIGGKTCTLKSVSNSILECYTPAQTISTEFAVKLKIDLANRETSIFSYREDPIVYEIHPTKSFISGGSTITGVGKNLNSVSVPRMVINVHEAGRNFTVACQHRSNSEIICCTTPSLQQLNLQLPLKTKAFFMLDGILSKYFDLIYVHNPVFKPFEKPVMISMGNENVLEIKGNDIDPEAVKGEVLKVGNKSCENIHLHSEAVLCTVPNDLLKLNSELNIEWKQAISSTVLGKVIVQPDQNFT
T4 sequence (P08581 25-932): as the sequence (P08581 25-932 limits assumed, form in doubt) above

B1: 76H10 chimeric llama-human IgG1 mAb (antibody, V domains shown)
VH: QLQLVESGGGLVQPGGSLRVSCTASGFTFNTYYMTWVRQAPGKGLEWVSDINSGGGTYYADSVKGRFTISRDNAKNTLYLQMNSLKPEDTALYYCVRVRIWPVGYDYWGQGTQVTVSS
VL: QAVVTQEPSLSVSPGGTVTLTCGLSSGSVTTSNYPGWFQQTPGQAPRTLIYNTNNRHSGVPSRFSGSISGNKAALTITGAQPEDEADYYCSLYTGSYTTVFGGGTHLTVL
notes: llama VH on human IgG1 CH1-CH2-CH3, llama VL on human lambda CL
% binding (EMAX) compared to WT MET [1]: 100 % WT MET ECD
% binding (EMAX) compared to WT MET [2]: 89 % WT MET ECD
IC50 [3]: 2010 pM
IMAX [3]: 62.7%
phospho-MET ELISA EC50, A549 cells [4]: 1770 pM
phospho-MET ELISA EMAX (% HGF activity), A549 cells [4]: 61.2%
phospho-MET ELISA EC50, MLP29 cells [5]: 2910 pM
phospho-MET ELISA EMAX (% HGF activity), MLP29 cells [5]: 64.1%
protection from staurosporine, viability EC50, MCF10A cells [6]: > 32000 pM
protection from staurosporine, viability EMAX, MCF10A cells [6]: 22.8%
protection from staurosporine, viability EC50, MLP29 cells [7]: > 32000 pM
protection from staurosporine, viability EMAX, MLP29 cells [7]: 27.2%
scatter score 0-4, HPAF-II, 0.001 nM [8]: 0 score
scatter score 0-4, HPAF-II, 0.004 nM [8]: 0 score
scatter score 0-4, HPAF-II, 0.012 nM [8]: 0 score
scatter score 0-4, HPAF-II, 0.037 nM [8]: 0 score
scatter score 0-4, HPAF-II, 0.111 nM [8]: 0 score
scatter score 0-4, HPAF-II, 0.333 nM [8]: 0 score
scatter score 0-4, HPAF-II, 1.000 nM [8]: 1 score
scatter score 0-4, HPAF-II, 3.000 nM [8]: 2 score
scatter score 0-4, HPAF-II, 9.000 nM [8]: 3 score
scatter score 0-4, MLP29, 0.001 nM [9]: 0 score
scatter score 0-4, MLP29, 0.004 nM [9]: 0 score
scatter score 0-4, MLP29, 0.012 nM [9]: 0 score
scatter score 0-4, MLP29, 0.037 nM [9]: 0 score
scatter score 0-4, MLP29, 0.111 nM [9]: 0 score
scatter score 0-4, MLP29, 0.333 nM [9]: 0 score
scatter score 0-4, MLP29, 1.000 nM [9]: 1 score
scatter score 0-4, MLP29, 3.000 nM [9]: 2 score
scatter score 0-4, MLP29, 9.000 nM [9]: 3 score
EC50 [10]: 2340 pM
EMAX [10]: 130 % relative to control
EC50 [11]: 1600 pM
EMAX [11]: 124 % relative to control
IC50 [12]: 1860 pM
IMAX [12]: 64.2%
EC50 [13]: 62 pM
EMAX (OD450) [13]: 2.66 AU
EC50 [14]: 90 pM
EMAX (OD450) [14]: 2.67 AU
branches per spheroid, LOC cells, 0.5 nM [15]: 7.3 branches
branches per spheroid, LOC cells, 2.5 nM [15]: 11.7 branches
branches per spheroid, LOC cells, 12.5 nM [15]: 16.7 branches
branches per spheroid, MLP29 cells, 0.5 nM [16]: 10.7 branches
branches per spheroid, MLP29 cells, 2.5 nM [16]: 14.3 branches
branches per spheroid, MLP29 cells, 12.5 nM [16]: 24.7 branches

B2: 71G3 chimeric llama-human IgG1 mAb (antibody, V domains shown)
VH: QVQLVESGGGLVQPGGSLRVSCAASGFTFSTYYMSWVRQAPGKGLEWVSDIRTDGGTYYADSVKGRFTMSRDNAKNTLYLQMNSLKPEDTALYYCARTRIFPSGYDYWGQGTQVTVSS
VL: QAVVTQEPSLSVSPGGTVTLTCGLSSGSVTTSNYPGWFQQTPGQAPRTLIYNTNSRHSGVPSRFSGSISGNKAALTIMGAQPEDEADYYCSLYPGSTTVFGGGTHLTVL
notes: as for B1
% binding (EMAX) compared to WT MET [1]: 100 % WT MET ECD
% binding (EMAX) compared to WT MET [2]: 91.2 % WT MET ECD
IC50 [3]: 530 pM
IMAX [3]: 62.9%
phospho-MET ELISA EC50, A549 cells [4]: 410 pM
phospho-MET ELISA EMAX (% HGF activity), A549 cells [4]: 95.7%
phospho-MET ELISA EC50, MLP29 cells [5]: 370 pM
phospho-MET ELISA EMAX (% HGF activity), MLP29 cells [5]: 97.8%
protection from staurosporine, viability EC50, MCF10A cells [6]: 5040 pM
protection from staurosporine, viability EMAX, MCF10A cells [6]: 65.2%
protection from staurosporine, viability EC50, MLP29 cells [7]: 4850 pM
protection from staurosporine, viability EMAX, MLP29 cells [7]: 62.3%
scatter score 0-4, HPAF-II, 0.001 nM [8]: 0 score
scatter score 0-4, HPAF-II, 0.004 nM [8]: 0 score
scatter score 0-4, HPAF-II, 0.012 nM [8]: 1 score
scatter score 0-4, HPAF-II, 0.037 nM [8]: 2 score
scatter score 0-4, HPAF-II, 0.111 nM [8]: 3 score
scatter score 0-4, HPAF-II, 0.333 nM [8]: 4 score
scatter score 0-4, HPAF-II, 1.000 nM [8]: 4 score
scatter score 0-4, HPAF-II, 3.000 nM [8]: 4 score
scatter score 0-4, HPAF-II, 9.000 nM [8]: 4 score
scatter score 0-4, MLP29, 0.001 nM [9]: 0 score
scatter score 0-4, MLP29, 0.004 nM [9]: 0 score
scatter score 0-4, MLP29, 0.012 nM [9]: 0 score
scatter score 0-4, MLP29, 0.037 nM [9]: 1 score
scatter score 0-4, MLP29, 0.111 nM [9]: 2 score
scatter score 0-4, MLP29, 0.333 nM [9]: 4 score
scatter score 0-4, MLP29, 1.000 nM [9]: 4 score
scatter score 0-4, MLP29, 3.000 nM [9]: 4 score
scatter score 0-4, MLP29, 9.000 nM [9]: 4 score
EC50 [10]: 296 pM
EMAX [10]: 117 % relative to control
EC50 [11]: 214 pM
EMAX [11]: 116 % relative to control
IC50 [12]: 490 pM
IMAX [12]: 63.2%
EC50 [13]: 57 pM
EMAX (OD450) [13]: 2.98 AU
EC50 [14]: 67 pM
EMAX (OD450) [14]: 2.83 AU
branches per spheroid, LOC cells, 0.5 nM [15]: 13.7 branches
branches per spheroid, LOC cells, 2.5 nM [15]: 19 branches
branches per spheroid, LOC cells, 12.5 nM [15]: 22.3 branches
branches per spheroid, MLP29 cells, 0.5 nM [16]: 24.7 branches
branches per spheroid, MLP29 cells, 2.5 nM [16]: 34.3 branches
branches per spheroid, MLP29 cells, 12.5 nM [16]: 29.3 branches
